According to the supplement of paper PMC10724198:

Assays:
Saccharomyces cerevisiae [1] = assay: protein stability index of tFT-peptide fusion in wild type (PSI (0-1 scale)); higher = more stable (slower turnover); conditions: genetic background: wild type
Procedure: (§1)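 MPS profiling in S. cerevisiae of two library types built from selected 12-aa C-degron peptides (IN1, IN2, LN1, LN3, VN2, R1-R5, W1-W3, Atg1 and Rpa12 C-termini): saturation mutagenesis libraries and C-terminal +1 capping libraries (13 aa). Each peptide is fused to the C-terminus of a sfGFP-mCherry timer, after a GGGS linker. Cells are FACS-sorted into 8 mCherry/sfGFP bins and sequenced. PSI runs from 0 (unstable) to 1 (stable), measured once in wild type and in the das1Δ or doa10Δ background.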

Saccharomyces cerevisiae [2] = assay: protein stability index of tFT-peptide fusion in deletion strain of DAS1 (PSI (0-1 scale)); higher = more stable (slower turnover)
Procedure: as §1
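Wherever protein stability index of tFT-peptide fusion in deletion strain of DAS1 is given: PSI is a weighted mean of each variant's read distribution over the sorted stability bins, computed only for variants having over 10 reads in total.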
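Wherever protein stability index of tFT-peptide fusion in wild type is given: PSI derived as read-weighted mean over the 8 sorting bins, only variants exceeding 10 total reads kept, mCherry placed adjacent to the peptide and sfGFP distal.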

Row | Sequence | protein stability index (Saccharomyces cerevisiae [1]) | protein stability index (Saccharomyces cerevisiae [2])
1 | FSMRWTFCYWVN | 0.0818 | 0.365
2 | FSMRWTFFYWVN | 0.104 | 0.44
3 | FSMRWTFIYWVN | 0.0416 | 0.263
4 | FSMRWTFPYWVN | 0.079 | 0.601
5 | FSMRWTFRCWVN | 0.17 | 0.425
6 | FSMRWTFRTWVN | 0.181 | 0.475
7 | FSMRWTFRYEVN | 0.168 | 0.509
8 | FSMRWTFRYQVN | 0.0962 | 0.539
9 | FSMRWTFRYWFN | 0.318 | 0.503
10 | FSMRWTFRYWGN | 0.19 | 0.547
11 | FSMRWTFRYWIN | 0.0567 | 0.469
12 | FSMRWTFRYWTN | 0.0691 | 0.644
13 | FSMRWTFRYWVNV | 0.147 | 0.5
14 | FSMRWTFRYWVP | 0.541 | 0.541
15 | FSMRWTFRYWVS | 0.181 | 0.547
16 | FSMRWTFRYWVW | 0.195 | 0.377
17 | FSMRWTFRYWWN | 0.271 | 0.497
18 | FSMRWTIRYWVN | 0.0535 | 0.38
19 | FSMRWTLRYWVN | 0.0387 | 0.438
20 | FSTRWTFRYWVN | 0.0442 | 0.62

Row | Sequence | protein stability index (Saccharomyces cerevisiae [1]) | protein stability index (Saccharomyces cerevisiae [2])
21 | FSWRWTFRYWVN | 0.0592 | 0.756
22 | HRGAVGGWRLVG | 0.172 | 0.665
23 | HTSCGYKFRTNN | 0.215 | 0.677
24 | KCHKKGQKQKIN | 0.342 | 0.592
25 | KKDKKGQKQKIN | 0.104 | 0.601
26 | KKHHKGQKQKIN | 0.0513 | 0.588
27 | KKHKKFQKQKIN | 0.0762 | 0.599
28 | KKHKKGGKQKIN | 0.169 | 0.653
29 | KKHKKGKKQKIN | 0.0795 | 0.579
30 | KKHKKGQGQKIN | 0.42 | 0.59
31 | KKHKKGQKHKIN | 0.228 | 0.588
32 | KKHKKGQKQCIN | 0.26 | 0.585
33 | KKHKKGQKQKCN | 0.312 | 0.584
34 | KKHKKGQKQKIC | 0.0636 | 0.61
35 | KKHKKGQKQKID | 0.547 | 0.611
36 | KKHKKGQKQKINS | 0.126 | 0.668
37 | KKHKKGQKQKPN | 0.617 | 0.722
38 | KKHKKGQKQLIN | 0.335 | 0.627
39 | KKHKKGQKQTIN | 0.362 | 0.571
40 | KKHKKGQKWKIN | 0.102 | 0.612

Row | Sequence | protein stability index (Saccharomyces cerevisiae [1]) | protein stability index (Saccharomyces cerevisiae [2])
41 | KKHKKGQSQKIN | 0.204 | 0.676
42 | KKHKKGTKQKIN | 0.0759 | 0.608
43 | KKHKKGWKQKIN | 0.0739 | 0.682
44 | KKHKKGYKQKIN | 0.113 | 0.607
45 | KKHKKPQKQKIN | 0.0387 | 0.659
46 | KKHKMGQKQKIN | 0.0496 | 0.623
47 | KKKKKGQKQKIN | 0.164 | 0.567
48 | KKMKKGQKQKIN | 0.0965 | 0.758
49 | KMHKKGQKQKIN | 0.1 | 0.857
50 | LHILRQKMNHQN | 0.105 | 0.662
51 | LKILIQKMNHQN | 0.217 | 0.695
52 | LKILRGKMNHQN | 0.297 | 0.674
53 | LKILRQKMCHQN | 0.217 | 0.68
54 | LKILRQKMGHQN | 0.541 | 0.672
55 | LKILRQKMNGQN | 0.353 | 0.659
56 | LKILRQKMNHPN | 0.672 | 0.688
57 | LKILRQKMNHQI | 0.179 | 0.67
58 | LKILRQKMNHQL | 0.172 | 0.67
